# Experimental data published in the RNAGym collection of RNA variant scans (doi:10.7554/elife.90254).
# B1: LINE1-full (parent)
# chain: UACGUAGGUGGUUUUCCCCUGAUAGUGCUAAGGGGGCCUGGAAGUUUGGACUGGGCAGAGCUCAACACAGCGUGGCAAAGUGGCUGUGGCUAGACUGCCUCUCUGGAUUCCUCGUCACUCAGCAGGGCAUCUCUGAGAGAAAUGCC
# Variants of: B1
# Assay: self-cleavage, relative activity (ratio to wild type); higher = more cleavage; in vitro, sequencing; the parent is a self-cleaving ribozyme
row,Variant,self-cleavage
1,G70C A77U,0.09
2,A57G C99U,0.13
3,A30G U115A,1.17
4,U39A A141G,1.55
5,U85A C98U,0.09
6,A6C A57G,0.92
7,A22U A50G,1.01
8,U12A U81A,1.89
9,U5C C38A,1.79
10,U13C C84U,0.11
11,A6G A141G,1.03
12,U62C C128A,0.05
13,U20A G49A,1.37
14,U52G A57G,0.82
15,U104C U132C,1.63
16,A50G A69G,0.35
17,U47A A50U,0.87
18,A50G G58C,0.11
19,U115C A142G,2.05
20,U13C U62C,0.09
21,A79U U100G,1.24
22,U15C G33A,1.05
23,U52A C128U,1.38
24,U87A U112A,0.07

row,Variant,self-cleavage
1,C17U U132C,0.95
2,U102C C131U,0.87
3,U15C A78U,2.44
4,U39A A124U,1.61
5,U47A U143G,1.2
6,U39A C111A,1.55
7,A77G U87C,0.42
8,A124U A140G,1.5
9,C19U U23C,0.79
10,G40U G139A,1.17
11,U9A U85C,0.54
12,G74A A77G,1.35
13,A24U U46C,1.54
14,U73C C145U,1.53
15,G126A U143A,1.49
16,C38A G44U,1.48
17,U14C G48A,1.12
18,C131A,1.48
19,G25U U46C,1.74
20,C56U G86A,0.04
21,U39C U108A,1.22
22,A6G G137U,0.81
23,A92U C128U,0.47
24,A79U U132A,1.83

row,Variant,self-cleavage
1,A2G C90U,0.15
2,U62C G97A,0.03
3,A50U G144A,1.37
4,U26A U85C,0.17
5,U14G U47C,1.02
6,U45A A50G,0.95
7,U13A G48A,1.01
8,A42G U109G,0.66
9,U100A A136C,1.05
10,C56U A142U,0.23
11,U46G A140G,1.78
12,U26G C110U,1.75
13,A30G A129C,0
14,G27A U134A,0.87
15,U9A G72A,0.81
16,G7A A141G,0.69
17,U100A U132C,0.65
18,A2G,0.85
19,G10A A22U,1.55
20,A43G A107C,1.17
21,G53U A77G,2.05
22,U12C U13A,0.27
23,A31G A117G,1.84
24,U47C G72A,0.94

row,Variant,self-cleavage
1,C84U U112A,0.11
2,G34A A107U,1.2
3,U20C A67G,0.74
4,G54A U132C,0.53
5,G48C U91C,1.05
6,U104A A141G,1.43
7,A67U U96A,0.02
8,C71A U96A,0.09
9,U14A U47C,1.14
10,U29G U85C,0.46
11,A140U A141G,1.41
12,U14C A92U,0.89
13,A64G A129G,0.29
14,C19U A42C,0.69
15,A79G U132A,1.25
16,C16U U39C,1.35
17,A78U G89A,0.07
18,A77G G80A,2.17
19,U26C G72C,0
20,U13C U100A,0.7
21,G36C U91C,0.51
22,A50G G93U,0.05
23,U9C A138G,1.21
24,U73C A94G,0.37

row,Variant,self-cleavage
1,U20A U29C,1.09
2,G4A U100C,1.21
3,G35A U109A,1.59
4,A69C U143A,0.07
5,U39G U46C,1.36
6,U23C U132A,1.86
7,U1G U46G,0.33
8,A57G G75C,0.35
9,G4A C116A,1.22
10,C110U G126A,1.34
11,G75A A107G,1.66
12,A59G U62A,0.06
13,U5A C98U,0.53
14,G10A U104C,0.37
15,U9A U12C,0.86
16,A43U A65G,0.02
17,U73C U81C,1.47
18,U81G U87A,0.15
19,U26A C99U,0.37
20,U15A A69U,0.05
21,U39A A121G,1.69
22,U12C U14A,0.81
23,A24U U130C,1.35
24,A24G A59G,0.21

row,Variant,self-cleavage
1,G11U U134G,1.07
2,G27A U102C,0.84
3,U39C U81C,1.45
4,C28G U85A,0.23
5,U9G A141G,1.51
6,A65U U108C,0.4
7,U12A G137U,1.05
8,U91C C95A,0.08
9,G8A A78G,2.03
10,U39A G86A,0.08
11,U47C A136U,1.24
12,U62G A69U,0.05
13,A30U U46C,1.12
14,U45C U104C,1.42
15,G32C A117G,1.53
16,A65U A138G,0.24
17,U96C U115A,0.13
18,U15C C90U,0.04
19,U14C U23A,1.62
20,C63U A77G,0.62
21,G34A G72A,1.24
22,G40A A142G,0.79
23,U81A G127A,1.72
24,A64G U132A,0.34

row,Variant,self-cleavage
1,C28G U143A,1.45
2,U91A U115C,0.78
3,U20G U115C,1.95
4,U14A U39C,0.95
5,U26C G93A,0.03
6,U115C A121C,1.66
7,U14C U85G,0
8,A124G C145A,1.22
9,U100A U119C,1.23
10,U73C A107U,2.22
11,U9C U134A,1.19
12,U12G A79G,1.25
13,U46A C113U,1.16
14,U5C G75A,1.15
15,A31G U104A,0.48
16,C63U U81C,0.4
17,U115C U143G,2.45
18,U23A G105U,1.36
19,U5A U9A,0
20,A22G A129C,0.27
21,A64G U108A,0.12
22,U81C A142C,1.18
23,U14C U73A,1.31
